According to publication PMC12256440:

Molecular target: MSC membrane glycoproteins (plasminogen membrane receptors) (human (endogenous in MSCs))

Michaelis-Menten constant of plasmin formation on scuPA-treated MSCs, plasminogen 0-2 μM, chromogenic substrate CBS0065: 0.5 µM
Substance: Glu-plasminogen (natural protein)
